Earlier results, collected in patent US20230220007A1, “SETD7 EPIGENETIC MODULATORS” (Biorchestra Co., Ltd., priority 2020, published 2023).

System: histone
Details: cited from earlier work; for histone monomethyl transferase activity: mutagenic studies on SETD7

Row | Molecule | monomethyl transferase activity (SETD7 substitution mutants) | dimethyltransferase activity | histone monomethyl transferase activity | methyltransferase activity (enzymatic activity) (His297 mutation)
1 | Y245A: SETD7 substitution mutant at position 245 (protein) MDSDDEMVEEAVEGHLDDDGLPHGFCTVTYSSTDRFEGNFVHGEKNGRGKFFFFDGSTLEGYYVDDALQGQGVYTYEDGGVLQGTYVDGELNGPAQEYDTDGRLIFKGQYKDNIRHGVCWIYYPDGGSLVGEVNEDGEMTGEKIAYVYPDERTALYGKFIDGEMIEGKLATLMSTEEGRPHFELMPGNSVYHFDKSTSSCISTNALLPDPYESERVYVAESLISSAGEGLFSKVAVGPNTVMSFANGVRITHQEVDSRDWALNGNTLSLDEETVIDVPEPYNHVSKYCASLGHKANHSFTPNCIYDMFVHPRFGPIKCIRTLRAVEADEELTVAYGYDHSPPGKSGPEAPEWYQVELKAFQATQQK | significantly reduces | increases | partial or complete loss | –
2 | E254A: SETD7 substitution mutant at position 254 (protein) MDSDDEMVEEAVEGHLDDDGLPHGFCTVTYSSTDRFEGNFVHGEKNGRGKFFFFDGSTLEGYYVDDALQGQGVYTYEDGGVLQGTYVDGELNGPAQEYDTDGRLIFKGQYKDNIRHGVCWIYYPDGGSLVGEVNEDGEMTGEKIAYVYPDERTALYGKFIDGEMIEGKLATLMSTEEGRPHFELMPGNSVYHFDKSTSSCISTNALLPDPYESERVYVAESLISSAGEGLFSKVAVGPNTVMSFYNGVRITHQAVDSRDWALNGNTLSLDEETVIDVPEPYNHVSKYCASLGHKANHSFTPNCIYDMFVHPRFGPIKCIRTLRAVEADEELTVAYGYDHSPPGKSGPEAPEWYQVELKAFQATQQK | – | – | partial or complete loss | –
3 | D270A: SETD7 substitution mutant at position 270 (protein) MDSDDEMVEEAVEGHLDDDGLPHGFCTVTYSSTDRFEGNFVHGEKNGRGKFFFFDGSTLEGYYVDDALQGQGVYTYEDGGVLQGTYVDGELNGPAQEYDTDGRLIFKGQYKDNIRHGVCWIYYPDGGSLVGEVNEDGEMTGEKIAYVYPDERTALYGKFIDGEMIEGKLATLMSTEEGRPHFELMPGNSVYHFDKSTSSCISTNALLPDPYESERVYVAESLISSAGEGLFSKVAVGPNTVMSFYNGVRITHQEVDSRDWALNGNTLSLAEETVIDVPEPYNHVSKYCASLGHKANHSFTPNCIYDMFVHPRFGPIKCIRTLRAVEADEELTVAYGYDHSPPGKSGPEAPEWYQVELKAFQATQQK | – | – | partial or complete loss | –
4 | N296A: SETD7 substitution mutant at position 296 (protein) MDSDDEMVEEAVEGHLDDDGLPHGFCTVTYSSTDRFEGNFVHGEKNGRGKFFFFDGSTLEGYYVDDALQGQGVYTYEDGGVLQGTYVDGELNGPAQEYDTDGRLIFKGQYKDNIRHGVCWIYYPDGGSLVGEVNEDGEMTGEKIAYVYPDERTALYGKFIDGEMIEGKLATLMSTEEGRPHFELMPGNSVYHFDKSTSSCISTNALLPDPYESERVYVAESLISSAGEGLFSKVAVGPNTVMSFYNGVRITHQEVDSRDWALNGNTLSLDEETVIDVPEPYNHVSKYCASLGHKAAHSFTPNCIYDMFVHPRFGPIKCIRTLRAVEADEELTVAYGYDHSPPGKSGPEAPEWYQVELKAFQATQQK | – | – | partial or complete loss | –
5 | H297A: SETD7 mutant protein with H297A mutation, abolishes methyltransferase activity (protein) MDSDDEMVEEAVEGHLDDDGLPHGFCTVTYSSTDRFEGNFVHGEKNGRGKFFFFDGSTLEGYYVDDALQGQGVYTYEDGGVLQGTYVDGELNGPAQEYDTDGRLIFKGQYKDNIRHGVCWIYYPDGGSLVGEVNEDGEMTGEKIAYVYPDERTALYGKFIDGEMIEGKLATLMSTEEGRPHFELMPGNSVYHFDKSTSSCISTNALLPDPYESERVYVAESLISSAGEGLFSKVAVGPNTVMSFYNGVRITHQEVDSRDWALNGNTLSLDEETVIDVPEPYNHVSKYCASLGHKANASFTPNCIYDMFVHPRFGPIKCIRTLRAVEADEELTVAYGYDHSPPGKSGPEAPEWYQVELKAFQATQQK | – | – | partial or complete loss | abolishes
